Assay results reported in patent US20260242735A1 (UNIVERSIT T BASEL, published 2026).

B1: Refmab #6 (antibody, V domains shown)
VH: QVQLQQPGAEVVKPGASVKMSCKASGYTFTSYYIHWIKQTPGQGLEWVGVIYPGNDDISYNQKFQGKATLTADKSSTTAYMQLSSLTSEDSAVYYCAREVRLRYFDVWGQGTTVTVSS
VL: EIVLTQSPGSLAVSPGERVTMSCKSSQSVFFSSSQKNYLAWYQQIPGQSPRLLIYWASTRESGVPDRFTGSGSGTDFTLTISSVQPEDLAIYYCHQYLSSRTFGQGTKLEIK
notes: Full-length format is human IgG1 Fc silent (PG-LALA); also made as Fab; The alanine scan used IgG or Fab
B2: Refmab #6 (antibody, V domains shown)
VH: B1 VH
VL: B1 VL
notes: The alanine scan used IgG or Fab
B3: Refmab #6 (antibody, human IgG1, V domains shown)
VH: B1 VH
VL: B1 VL
B4: Refmab #5 (antibody, V domains shown)
VH: QVQLVQSGAEVKKPGASVKVSCKASGYTFTNYDINWVRQAPGQGLEWIGWIYPGDGSTKYNEKFKAKATLTADTSTSTAYMELRSLRSDDTAVYYCASGYEDAMDYWGQGTTVTVSS
VL: DIQMTQSPSSLSASVGDRVTINCKASQDINSYLSWFQQKPGKAPKTLIYRANRLVDGVPSRFSGSGSGQDYTLTISSLQPEDFATYYCLQYDEFPLTFGGGTKVEIK
notes: as for B1
B5: Refmab #5 (antibody, human IgG1, V domains shown)
VH: B4 VH
VL: B4 VL
B6: Refmab #5 (antibody, V domains shown)
VH: B4 VH
VL: B4 VL
notes: as for B2

Key:
[1] = target: human CD33 Q80A (human, UniProt P20138 18-364); test: alanine scan, flow cytometry, HEK293-T;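 note: antibody binding to each alanine-substituted CD33 mutant expressed transiently in HEK293-T, read as fluorescence minus background, mean of duplicates, relative to wild-type CD33 set as 100%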
[2] = target: T1, human CD33 H137A (human, UniProt P20138 18-364); test: alanine scan, flow cytometry, HEK293-T;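 note: antibody binding to each alanine-substituted CD33 mutant expressed transiently in HEK293-T, read as fluorescence minus background, mean of duplicates, relative to wild-type CD33 set as 100%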
T1 construct: alanine scan clone, transfected HEK293-T

[3] = target: human CD33 I47S (human, UniProt P20138 18-364); test: flow cytometry on transfected cells, IgG
Description: (§1) An alanine scan on human CD33 was performed to the determine the residues on CD33 that are involved in binding to the antibodies investigated. […] Briefly, a mutation library of CD33 was created by high-throughput, site-directed mutagenesis. Each residue was individually mutated to alanine, with alanine codons mutated to serine. The mutant library was arrayed in 384-well microplates and transiently transfected into HEK293-T. Following transfection, cells were incubated with the indicated antibodies (IgG or Fab) at concentrations pre-determined using an independent immunofluorescence titration curve on wild type CD33. […] Binding of each antibody to each mutant clone was determined in duplicates. For each point, background fluorescence was subtracted from the raw data, which were then normalized to antibody reactivity with wild type CD33.
(§2) Antibodies were screened for binding to the human CD33 variants in IgG format. […] For each mutation, background fluorescence was subtracted from the raw data, which were then normalized to antibody reactivity with wild-type CD33.

[4] = target: human CD33 I47F (human, UniProt P20138 18-364); test: flow cytometry on transfected cells, IgG
Description: as §1, §2

[5] = target: human CD33 F43L (human, UniProt P20138 18-364); test: flow cytometry on transfected cells, IgG
Description: as §1, §2

[6] = target: human CD33 Y49T (human, UniProt P20138 18-364); test: flow cytometry on transfected cells, IgG
Description: as §1, §2

[7] = target: human CD33 F44L (human, UniProt P20138 18-364); test: flow cytometry on transfected cells, IgG
Description: as §1, §2

[8] = target: human CD33 F44E (human, UniProt P20138 18-364); test: flow cytometry on transfected cells, IgG
Description: as §1, §2

[9] = target: human CD33 P48K (human, UniProt P20138 18-364); test: flow cytometry on transfected cells, IgG
Description: as §1, §2

[10] = target: human CD33 H45Y (human, UniProt P20138 18-364); test: flow cytometry on transfected cells, IgG
Description: as §1, §2

[11] = target: human CD33 I47V (human, UniProt P20138 18-364); test: flow cytometry on transfected cells, IgG
Description: as §1, §2

[12] = target: human CD33 Y50I (human, UniProt P20138 18-364); test: flow cytometry on transfected cells, IgG
Description: as §1, §2

[13] = target: human CD33 Y50G (human, UniProt P20138 18-364); test: flow cytometry on transfected cells, IgG
Description: as §1, §2

[14] = target: human CD33 Y49C (human, UniProt P20138 18-364); test: flow cytometry on transfected cells, IgG
Description: as §1, §2

[15] = target: human CD33 P46F (human, UniProt P20138 18-364); test: flow cytometry on transfected cells, IgG
Description: as §1, §2

[16] = target: human CD33 P48S (human, UniProt P20138 18-364); test: flow cytometry on transfected cells, IgG
Description: as §1, §2

[17] = target: human CD33 P46D (human, UniProt P20138 18-364); test: flow cytometry on transfected cells, IgG
Description: as §1, §2

[18] = target: human CD33 F44D (human, UniProt P20138 18-364); test: flow cytometry on transfected cells, IgG
Description: as §1, §2

[19] = target: human CD33 Y49H (human, UniProt P20138 18-364); test: flow cytometry on transfected cells, IgG
Description: as §1, §2

[20] = target: human CD33 P46I (human, UniProt P20138 18-364); test: flow cytometry on transfected cells, IgG
Description: as §1, §2

[21] = target: human CD33 P48I (human, UniProt P20138 18-364); test: flow cytometry on transfected cells, IgG
Description: as §1, §2

[22] = target: human CD33 Y50P (human, UniProt P20138 18-364); test: flow cytometry on transfected cells, IgG
Description: as §1, §2

[23] = target: human CD33 P48W (human, UniProt P20138 18-364); test: flow cytometry on transfected cells, IgG
Description: as §1, §2

[24] = target: human CD33 P48L (human, UniProt P20138 18-364); test: flow cytometry on transfected cells, IgG
Description: as §1, §2

[25] = target: human CD33 F44S (human, UniProt P20138 18-364); test: flow cytometry on transfected cells, IgG
Description: as §1, §2

[26] = target: human CD33 I47Y (human, UniProt P20138 18-364); test: flow cytometry on transfected cells, IgG
Description: as §1, §2

[27] = target: human CD33 Y49G (human, UniProt P20138 18-364); test: flow cytometry on transfected cells, IgG
Description: as §1, §2

[28] = target: human CD33 Y50D (human, UniProt P20138 18-364); test: flow cytometry on transfected cells, IgG
Description: as §1, §2

[29] = target: human CD33 Y50L (human, UniProt P20138 18-364); test: flow cytometry on transfected cells, IgG
Description: as §1, §2

[30] = target: human CD33 P48M (human, UniProt P20138 18-364); test: flow cytometry on transfected cells, IgG
Description: as §1, §2

[31] = target: human CD33 I47W (human, UniProt P20138 18-364); test: flow cytometry on transfected cells, IgG
Description: as §1, §2

[32] = target: human CD33 I47L (human, UniProt P20138 18-364); test: flow cytometry on transfected cells, IgG
Description: as §1, §2

[33] = target: human CD33 P46S (human, UniProt P20138 18-364); test: flow cytometry on transfected cells, IgG
Description: as §1, §2

[34] = target: human CD33 I47P (human, UniProt P20138 18-364); test: flow cytometry on transfected cells, IgG
Description: as §1, §2

[35] = target: human CD33 F44T (human, UniProt P20138 18-364); test: flow cytometry on transfected cells, IgG
Description: as §1, §2

[36] = target: human CD33 P48Y (human, UniProt P20138 18-364); test: flow cytometry on transfected cells, IgG
Description: as §1, §2

[37] = target: human CD33 Y49V (human, UniProt P20138 18-364); test: flow cytometry on transfected cells, IgG
Chain of human CD33 Y49V (P20138 18-364 Y49V limits assumed): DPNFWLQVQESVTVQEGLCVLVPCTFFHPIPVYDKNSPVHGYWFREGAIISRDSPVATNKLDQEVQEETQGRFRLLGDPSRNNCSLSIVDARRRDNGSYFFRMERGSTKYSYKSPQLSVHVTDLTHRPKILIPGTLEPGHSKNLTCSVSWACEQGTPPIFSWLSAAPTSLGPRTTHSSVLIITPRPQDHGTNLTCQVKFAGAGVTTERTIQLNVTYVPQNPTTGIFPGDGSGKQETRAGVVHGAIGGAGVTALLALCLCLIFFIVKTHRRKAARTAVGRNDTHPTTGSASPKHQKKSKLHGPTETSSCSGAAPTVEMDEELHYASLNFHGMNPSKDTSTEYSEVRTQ
Description: as §1, §2

Chain of human CD33 F44T (P20138 18-364 F44T limits assumed): as the sequence (P20138 18-364 Y49V limits assumed) above, with F27T, V32Y counted along it
Chain of human CD33 P48L (P20138 18-364 P48L limits assumed): as the sequence (P20138 18-364 Y49V limits assumed) above, with P31L, V32Y counted along it
Chain of human CD33 Y49T (P20138 18-364 Y49T limits assumed): as the sequence (P20138 18-364 Y49V limits assumed) above, with V32T counted along it
Chain of human CD33 I47W (P20138 18-364 I47W limits assumed): as the sequence (P20138 18-364 Y49V limits assumed) above, with I30W, V32Y counted along it
Chain of human CD33 F43L (P20138 18-364 F43L limits assumed): as the sequence (P20138 18-364 Y49V limits assumed) above, with F26L, V32Y counted along it
Chain of human CD33 Y50G (P20138 18-364 Y50G limits assumed): as the sequence (P20138 18-364 Y49V limits assumed) above, with V32Y, Y33G counted along it
Chain of human CD33 F44D (P20138 18-364 F44D limits assumed): as the sequence (P20138 18-364 Y49V limits assumed) above, with F27D, V32Y counted along it
Chain of human CD33 Y50I (P20138 18-364 Y50I limits assumed): as the sequence (P20138 18-364 Y49V limits assumed) above, with V32Y, Y33I counted along it
Chain of human CD33 I47P (P20138 18-364 I47P limits assumed): as the sequence (P20138 18-364 Y49V limits assumed) above, with I30P, V32Y counted along it
Chain of human CD33 I47Y (P20138 18-364 I47Y limits assumed): as the sequence (P20138 18-364 Y49V limits assumed) above, with I30Y, V32Y counted along it
Chain of human CD33 P48K (P20138 18-364 P48K limits assumed): as the sequence (P20138 18-364 Y49V limits assumed) above, with P31K, V32Y counted along it
Chain of human CD33 H45Y (P20138 18-364 H45Y limits assumed): as the sequence (P20138 18-364 Y49V limits assumed) above, with H28Y, V32Y counted along it
Chain of human CD33 Y50P (P20138 18-364 Y50P limits assumed): as the sequence (P20138 18-364 Y49V limits assumed) above, with V32Y, Y33P counted along it

Binder | Mean % WT Binding [1] [% WT binding] | Mean % WT Binding [2] [% WT binding] | Mean % WT Binding [3] [% WT binding] | Mean % WT Binding [4] [% WT binding] | Mean % WT Binding [5] [% WT binding] | Mean % WT Binding [6] [% WT binding] | Mean % WT Binding [7] [% WT binding] | Mean % WT Binding [8] [% WT binding] | Mean % WT Binding [9] [% WT binding] | Mean % WT Binding [10] [% WT binding] | Mean % WT Binding [11] [% WT binding] | Mean % WT Binding [12] [% WT binding] | Mean % WT Binding [13] [% WT binding] | Mean % WT Binding [14] [% WT binding] | Mean % WT Binding [15] [% WT binding] | Mean % WT Binding [16] [% WT binding] | Mean % WT Binding [17] [% WT binding] | Mean % WT Binding [18] [% WT binding] | Mean % WT Binding [19] [% WT binding] | Mean % WT Binding [20] [% WT binding] | other results
B1 | 102 |  |  |  |  |  |  |  |  |  |  |  |  |  |  |  |  |  |  |  | 
B2 |  | 117 |  |  |  |  |  |  |  |  |  |  |  |  |  |  |  |  |  |  | 
B3 |  |  | 91 | 105 | 87.9 | 121 | 104 | 102 | 89.4 | 84.4 | 101 | 118 | 115 | 44.7 | 92.6 | 97.2 | 104 | 107 | 118 | 98.5 | Mean % WT Binding [21]: 102 % WT binding; Mean % WT Binding [22]: 98.1 % WT binding; Mean % WT Binding [23]: 87.2 % WT binding; Mean % WT Binding [24]: 104 % WT binding; Mean % WT Binding [25]: 86.1 % WT binding; Mean % WT Binding [26]: 105 % WT binding; Mean % WT Binding [27]: 121 % WT binding; Mean % WT Binding [28]: 129 % WT binding; Mean % WT Binding [29]: 108 % WT binding; Mean % WT Binding [30]: 103 % WT binding; Mean % WT Binding [31]: 114 % WT binding; Mean % WT Binding [32]: 99.1 % WT binding; Mean % WT Binding [33]: 110 % WT binding; Mean % WT Binding [34]: 114 % WT binding; Mean % WT Binding [35]: 93.9 % WT binding; Mean % WT Binding [36]: 79.1 % WT binding; Mean % WT Binding [37]: 121 % WT binding
B4 | 151 |  |  |  |  |  |  |  |  |  |  |  |  |  |  |  |  |  |  |  | 
B5 |  |  | 98.2 | 90.5 | 96.3 | 0.5 | 109 | 97 | 58.7 | 94.2 | 104 | 2.5 | 5 | 0.7 | 62 | 43 | 76 | 111 | 2.4 | 100 | Mean % WT Binding [21]: 4 % WT binding; Mean % WT Binding [22]: 43.4 % WT binding; Mean % WT Binding [23]: 2.2 % WT binding; Mean % WT Binding [24]: 18.9 % WT binding; Mean % WT Binding [25]: 104 % WT binding; Mean % WT Binding [26]: 94.5 % WT binding; Mean % WT Binding [27]: 0.8 % WT binding; Mean % WT Binding [28]: 2.5 % WT binding; Mean % WT Binding [29]: 1.7 % WT binding; Mean % WT Binding [30]: 31.4 % WT binding; Mean % WT Binding [31]: 90.8 % WT binding; Mean % WT Binding [32]: 107 % WT binding; Mean % WT Binding [33]: 98.7 % WT binding; Mean % WT Binding [34]: 4.9 % WT binding; Mean % WT Binding [35]: 92.4 % WT binding; Mean % WT Binding [36]: 1.5 % WT binding; Mean % WT Binding [37]: 0.9 % WT binding
B6 |  | 120 |  |  |  |  |  |  |  |  |  |  |  |  |  |  |  |  |  |  | 
